Assay results from patent US20120288511A1 (INDIANA UNIVERSITY RESEARCH AND TECHNOLOGY, published 2012).
Read-outs that look alike come from different tables or passages of the source. Non-standard residues stand in square brackets, D forms with d. No end group written: not given here. Aib = CC(C)(N)C(=O)O

Key:
Assay in all cases: cell-based or functional assay
glucagon receptor [1] = target: T1, glucagon receptor (human, UniProt P47871 26-477)
GLP-1 receptor [2] = target: T2, GLP-1 receptor (human, UniProt P43220 24-463)
glucagon receptor [3] = target: T1, glucagon receptor; remark: listed apart in the source
GLP-1 receptor [4] = target: T2, GLP-1 receptor; remark: listed apart in the source
glucagon receptor [5] = target: T1, glucagon receptor; remark: listed apart in the source
GLP-1 receptor [6] = target: T2, GLP-1 receptor; remark: listed apart in the source
glucagon receptor [7] = target: T1, glucagon receptor; remark: listed apart in the source
GLP-1 receptor [8] = target: T2, GLP-1 receptor; remark: listed apart in the source
glucagon receptor [9] = target: T1, glucagon receptor; remark: listed apart in the source
GLP-1 receptor [10] = target: T2, GLP-1 receptor; remark: listed apart in the source
glucagon receptor [11] = target: T1, glucagon receptor; remark: listed apart in the source
GLP-1 receptor [12] = target: T2, GLP-1 receptor; remark: listed apart in the source
glucagon receptor [13] = target: T1, glucagon receptor; remark: listed apart in the source
GLP-1 receptor [14] = target: T2, GLP-1 receptor; remark: listed apart in the source
glucagon receptor [15] = target: T1, glucagon receptor; remark: listed apart in the source
GLP-1 receptor [16] = target: T2, GLP-1 receptor; remark: listed apart in the source

T1 sequence (P47871 26-477): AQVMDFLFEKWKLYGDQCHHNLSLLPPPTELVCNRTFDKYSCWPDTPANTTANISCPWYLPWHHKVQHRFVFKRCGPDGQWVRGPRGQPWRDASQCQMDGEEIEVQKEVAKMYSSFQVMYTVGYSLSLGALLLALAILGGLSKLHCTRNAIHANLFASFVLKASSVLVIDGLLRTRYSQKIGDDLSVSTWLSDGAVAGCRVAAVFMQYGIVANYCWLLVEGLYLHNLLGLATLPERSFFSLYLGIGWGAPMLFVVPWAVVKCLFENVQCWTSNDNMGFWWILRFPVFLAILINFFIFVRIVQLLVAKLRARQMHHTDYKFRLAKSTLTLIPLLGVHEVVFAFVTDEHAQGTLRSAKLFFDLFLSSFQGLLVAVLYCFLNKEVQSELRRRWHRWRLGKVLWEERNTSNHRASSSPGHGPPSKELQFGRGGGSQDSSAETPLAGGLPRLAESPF

Binder: H[Aib]QGTFTSDYSKYLDEQAAKEFIAWLMNT-NH2 [Glucagon Analog D]
- EC50 (cAMP luciferase reporter) (glucagon receptor [1]): 0.85 nM
- EC50 (cAMP luciferase reporter) (GLP-1 receptor [2]): 0.02 nM

Binder: HSQKTFTEDYSKYLDSRRAQDFVQWLMNT (not fully specified; also: further groups not given here) [Peptide 17]
- EC50 (cAMP luciferase reporter) (glucagon receptor [3]): 862 nM
- EC50 (cAMP luciferase reporter) (GLP-1 receptor [4]): 148 nM

Binder: H[Aib]QGTFTSDYSKYLDEEAVRLFIEWLMNT-NH2 [Glucagon Analog C]
- EC50 (cAMP luciferase reporter) (glucagon receptor [1]): 0.17 nM
- EC50 (cAMP luciferase reporter) (GLP-1 receptor [2]): 0.006 nM

Binder: HSQGTFTSDKSKYLDERAAQDFVQWLLDT-NH2 (not fully specified; also: position 2 Aib or D-Ser) [Glucagon Analog 51]
- % Relative Activity vs native glucagon (glucagon receptor [5]): 314%
- EC50 (cAMP luciferase reporter) (glucagon receptor [5]): 3.5 pM
- % Relative Activity vs native GLP-1 (GLP-1 receptor [6]): 949%
- EC50 (cAMP luciferase reporter) (GLP-1 receptor [6]): 3.9 pM
- EC50 (cAMP luciferase reporter) (glucagon receptor [7]): 3.5 pM
- EC50 (cAMP luciferase reporter) (GLP-1 receptor [8]): 3.9 pM
- % Relative Activity vs native glucagon (glucagon receptor [9]): 314%
- EC50 (cAMP luciferase reporter) (glucagon receptor [9]): 0.004 nM
- % Relative Activity vs native GLP-1 (GLP-1 receptor [10]): 949%
- EC50 (cAMP luciferase reporter) (GLP-1 receptor [10]): 0.004 nM

B1: Glucagon Analog 24 (peptide)
peptide: HSQGTFTSDYSKYLDEKRAKEFVC(PEG 40 kDa)WLMNT-NH2
modifications: also: DPP-IV-protecting residue at position 1 or 2 not given here, non-covalent salt bridge Lys17/Glu21
- % Relative Activity vs native glucagon (glucagon receptor [11]): 7%
- EC50 (cAMP luciferase reporter) (glucagon receptor [11]): 0.676 nM
- % Relative Activity vs native GLP-1 (GLP-1 receptor [12]): 5%
- EC50 (cAMP luciferase reporter) (GLP-1 receptor [12]): 1.58 nM

Binder: HSQGTFTSDKSKYLDEQAAKEFICWLLDT (also: DPP-IV-resistant residue at position 1 or 2, not given here) [Glucagon Analog 53]
- % Relative Activity vs native glucagon (glucagon receptor [13]): 411%
- EC50 (cAMP luciferase reporter) (glucagon receptor [13]): 0.009 nM
- % Relative Activity vs native GLP-1 (GLP-1 receptor [14]): 708%
- EC50 (cAMP luciferase reporter) (GLP-1 receptor [14]): 0.012 nM

Binder: HSQGTFTSDYSKYLDKRRAEDFVQWLMNT (not fully specified; also: further groups not given here) [Peptide 3]
- EC50 (cAMP luciferase reporter) (glucagon receptor [3]): 0.34 nM
- EC50 (cAMP luciferase reporter) (GLP-1 receptor [4]): 1.15 nM

B2: Glucagon Analog 20 (peptide)
peptide: HSQGTFTSDYSKYLDEKRAKEFVQWLMNT-NH2
modifications: also: DPP-IV-protecting residue at position 1 or 2: D-Ser, Aib or Dmia, salt bridge Lys17/Glu21 plus salt bridge 16/20 or α,α-disubstituted residue at 16
- EC50 (cAMP luciferase reporter) (glucagon receptor [11]): 0.054 nM
- EC50 (cAMP luciferase reporter) (GLP-1 receptor [12]): 0.284 nM
- EC50 (cAMP luciferase reporter) (glucagon receptor [15]): 0.054 nM
- EC50 (cAMP luciferase reporter) (GLP-1 receptor [16]): 0.284 nM

Binder: HSQGTFTSDKSKYLDEQAAKEFICWLLDTG (not fully specified) [Glucagon Analog 55]
- % Relative Activity vs native glucagon (glucagon receptor [13]): 7%
- EC50 (cAMP luciferase reporter) (glucagon receptor [13]): 0.55 nM
- % Relative Activity vs native GLP-1 (GLP-1 receptor [14]): 16%
- EC50 (cAMP luciferase reporter) (GLP-1 receptor [14]): 0.516 nM

Binder: HSQGTFTSDKSKYLDEQAAKEFICWLLDTGG (not fully specified) [Glucagon Analog 56]
- % Relative Activity vs native glucagon (glucagon receptor [13]): 272%
- EC50 (cAMP luciferase reporter) (glucagon receptor [13]): 0.018 nM
- % Relative Activity vs native GLP-1 (GLP-1 receptor [14]): 125%
- EC50 (cAMP luciferase reporter) (GLP-1 receptor [14]): 0.068 nM

Binder: HSQGTFTSDYSKYLDEEAVRLFIEWLMNT-NH2 (not fully specified (residue 2)) [Glucagon Analog A]
- EC50 (cAMP luciferase reporter) (glucagon receptor [1]): 0.061 nM
- EC50 (cAMP luciferase reporter) (GLP-1 receptor [2]): 0.009 nM

B3: Glucagon Analog 29 (peptide)
peptide: HSQGTFTSDKSKYLDERAAQDFVC(PEG 40 kDa)WLLDT-NH2
modifications: not fully specified (residue 10); also: Lys10 acylated, acyl group not given here
- EC50 (cAMP luciferase reporter) (glucagon receptor [7]): 85 pM
- EC50 (cAMP luciferase reporter) (GLP-1 receptor [8]): 84 pM
- % Relative Activity vs native glucagon (glucagon receptor [9]): 40%
- EC50 (cAMP luciferase reporter) (glucagon receptor [9]): 0.085 nM
- % Relative Activity vs native GLP-1 (GLP-1 receptor [10]): 43%
- EC50 (cAMP luciferase reporter) (GLP-1 receptor [10]): 0.084 nM
- EC50 (cAMP luciferase reporter) (glucagon receptor [15]): 0.085 nM
- percent in parentheses (not explained) (glucagon receptor [15]): 74%
- EC50 (cAMP luciferase reporter) (GLP-1 receptor [16]): 0.084 nM
- percent in parentheses (not explained) (GLP-1 receptor [16]): 16%

Binder: HAQGTFTSDKSKYLDERAAQDFVCWLLDT (not fully specified (C-terminus)) [Glucagon Analog 59]
- % Relative Activity vs native glucagon (glucagon receptor [9]): 490%
- EC50 (cAMP luciferase reporter) (glucagon receptor [9]): 0.01 nM
- % Relative Activity vs native GLP-1 (GLP-1 receptor [10]): 484%
- EC50 (cAMP luciferase reporter) (GLP-1 receptor [10]): 0.019 nM

Binder: KAHSEGTFTSDYSKYLDSRRAQDFVQWLMNT (not fully specified; also: further groups not given here) [Peptide 12]
- EC50 (cAMP luciferase reporter) (glucagon receptor [3]): 85.9 nM
- EC50 (cAMP luciferase reporter) (GLP-1 receptor [4]): 41.7 nM

Binder: KAHSEGTFTSDYSKYLDSRRAQDFVQWLMNT (not fully specified; also: further groups not given here) [Peptide 13]
- EC50 (cAMP luciferase reporter) (glucagon receptor [3]): 30.7 nM
- EC50 (cAMP luciferase reporter) (GLP-1 receptor [4]): 14.3 nM

Binder: HSQGTFTSDYSKYLDEQAAKEFIAWLMNT-NH2 (not fully specified (residue 2)) [Glucagon Analog B]
- EC50 (cAMP luciferase reporter) (glucagon receptor [1]): 0.072 nM
- EC50 (cAMP luciferase reporter) (GLP-1 receptor [2]): 0.014 nM
